Data on one molecule can be found in publication PMC8079451, “Phosphopeptide interactions of the Nbs1 N-terminal FHA-BRCT1/2 domains” (Scientific Reports, 2021).

Positions count from the first letter of the chain named. Square brackets hold non-standard residues; d marks the D form. Primed or numbered codes have the meaning given here. Ends that are not written are not given here. FITC′ = fluorescein isothiocyanate label; pT = C[C@@H](OP(=O)(O)O)[C@H](N)C(=O)O

Test in all cases: fluorescence polarisation; 100 nM FITC-labeled phosphopeptide with increasing hsNbs1(384); room temperature, 15 min incubation; 25 mM HEPES pH 7.4, 150 mM NaCl, 1 mM EDTA, 2 mM DTT, 0.05% Tween20, 0.1% BSA; one-site model
What all share (settings): both partners purified

One experiment deals with T1, hsNbs1(384) K125A (human, UniProt O60934 1-384, K125A).
T1 construct: source: E. coli BL21(DE3) pLacI, purified as the wild type
T1 sequence (looked up): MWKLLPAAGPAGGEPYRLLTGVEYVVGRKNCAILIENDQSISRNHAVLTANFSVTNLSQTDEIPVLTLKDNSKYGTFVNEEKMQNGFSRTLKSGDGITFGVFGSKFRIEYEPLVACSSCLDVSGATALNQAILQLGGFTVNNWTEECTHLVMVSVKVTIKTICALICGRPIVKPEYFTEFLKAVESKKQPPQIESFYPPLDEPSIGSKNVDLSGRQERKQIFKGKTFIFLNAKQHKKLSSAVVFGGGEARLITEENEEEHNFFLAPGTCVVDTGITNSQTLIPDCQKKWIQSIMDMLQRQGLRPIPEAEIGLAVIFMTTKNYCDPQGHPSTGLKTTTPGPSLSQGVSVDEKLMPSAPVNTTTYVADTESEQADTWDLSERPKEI

The target of another experiment is T2, hsNbs1(384) R43A (human, UniProt O60934 1-384, R43A).
T2 construct: source: E. coli BL21(DE3) pLacI, purified as the wild type
T2 sequence (looked up): T1 sequence (looked up) with R43A, A125K

The target of another experiment is T3, hsNbs1(384) R28A (human, UniProt O60934 1-384, R28A).
T3 construct: source: E. coli BL21(DE3) pLacI, purified as the wild type
T3 sequence (looked up): T1 sequence (looked up) with R28A, A125K

B1: hsCtIP phosphopeptide R841YIPPNpTPENFWEVGFPEEQ860 with N-terminal FITC-Gly-Gly (peptide)
chain: {FITC′}-GGRYIPPN[pT]PENFWEVGFPEEQ
What is called Kd is the concentration at which binding is half-saturated. A low value points to higher affinity. For B1, the dissociation constant Kd with hsNbs1(384) K125A turned out to be 39.6 µM; with hsNbs1(384) R43A, 29.2 µM; with hsNbs1(384) R28A, 35.9 µM.
